Biological target: UNC-45 (C. elegans), full-length recombinant protein (C. elegans)
Test: ITC

| Binder | Kd [µM] |
| --- | --- |
| EDASRMEEVD [Hsp90 (DAF-21) C-terminal peptide …] | 14 |
| AGGPTIEEVD [Hsp70 (HSP-1) C-terminal peptide …] | 120 |

From publication PMC3549490
